The target in the assay is Gal4BD-TR4LBD (mouse) (UniProt P49117). The experiment in a line: two-hybrid.

These results are taken from publication PMC2784022.

Sequence of UniProt P49117 (P49117 178-477): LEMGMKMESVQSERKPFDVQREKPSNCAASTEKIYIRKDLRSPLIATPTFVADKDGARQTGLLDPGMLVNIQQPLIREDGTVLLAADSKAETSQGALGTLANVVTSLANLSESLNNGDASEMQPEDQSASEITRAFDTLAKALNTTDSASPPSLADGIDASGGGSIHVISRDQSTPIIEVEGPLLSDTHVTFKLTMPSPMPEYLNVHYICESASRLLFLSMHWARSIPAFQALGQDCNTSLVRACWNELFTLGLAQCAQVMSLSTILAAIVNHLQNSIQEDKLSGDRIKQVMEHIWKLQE

In the case of “VP16AD-PCAF (from UniProt Q92831 1-832) (natural protein)”, the fold enhancement of the two-hybrid reporter with γ-linoleic acid is 12 fold.

B1: VP16AD-RIP140 (natural protein)
chain: MTHGEELGSDVHQDSIVLTYLEGLLMHQAAGGSGTAINKKSAGHKEEDQNFNLSGSAFPSCQSNGPTVSTQTYQGSGMLHLKKARLLQSSEDWNAAKRKRLSDSIVNLNVKKEALLAGMVDSVPKGKQDSTLLASLLQSFSSRLQTVALSQQIRQSLKEQGYALSHESLKVEKDLRCYGVASSHLKTLLKKSKTKDQKSGPTLPDVTPNLIRDSFVESSHPAVGQSGTKVMSEPLSCAARLQAVASMVEKRASPAASPKPSVACSQLALLLSSEAHLQQYSREHALKTQNAHQVASERLAAMARLQENGQKDVGSSQLSKGVSGHLNGQARALPASKLVANKNNAATFQSPMGVVPSSPKNTSYKNSLERNNLKQAANNSLLLHLLKSQTIPTPMNGHSQNERASSFESSTPTTIDEYSDNNPSFTDDSSGDESSYSNCVPIDLSCKHRIEKPEAERPVSLENLTQSLLNTWDPKIPGVDIKEDQDTSTNSKLNSHQKVTLLQLLLGHKSEETVERNASPQDIHSDGTKFSPQNYTRTSVIESPSTNRTTPVSTPPLYTASQAESPINLSQHSLVIKWNSPPYACSTPASKLTNTAPSHLMDLTKGKESQAEKPAPSEGAQNSATFSASKLLQNLAQCGLQSSGPGEEQRPCKQLLSGNPDKPLGLIDRLNSPLLSNKTNAAEESKAFSSQPAGPEPGLPGCEIENLLERRTVLQLLLGNSSKGKNEKKEKTPARDEAPQEHSERAANEQILMVKIKSEPCDDFQTHNTNLPLNHDAKSAPFLGVTPAIHRSTAALPVSEDFKSEPASPQDFSFSKNGLLSRLLRQNQESYPADEQDKSHRNSELPTLESKNICMVPKKRKLYTEPLENPFKKMKNTAVDTANHHSGPEVLYGSLLHQEELKFSRNELDYKYPAGHSSASDGDHRSWARESKSFNVLKQLLLSENCVRDLSPHRSDSVPDTKKKGHKNNAPGSKPEFGISSLNGLMYSSPQPGSCVTDHRTFSYPGMVKTPLSPPFPEHLGCVGSRPEPGLLNGCSVPGEKGPIKWVIADMDKNEYEKDSPRLTKTNPILYYMLQKGGGNSVTTQETQDKDIWREPASAESLSQVTVKEELLPAAETKASFFNLRSPYNSHMGNNASRPHSTNGEVYGLLGNALTIKKESE
B1: the fold enhancement of the two-hybrid reporter with γ-linoleic acid was determined as 23 fold.
